Measurements taken from PMC8787470, “Functional Irreplaceability of Escherichia coli and Shewanella oneidensis OxyRs Is Critically Determined by Intrinsic Differences in Oligomerization” (mBio, 2022).

B1: OxyR^Δ286− (SoOxyR truncation lacking all residues after 286) (domain or fragment, Shewanella oneidensis, UniProt Q8EHA1 1-286, looked up)
chain: MKNLPSLKNLYYLVNLHQEQNFNRAAKVCFVSQSTLSSGIQNLEEQLGHQLIERDHKSFMFTAIGEEVVQRSRKILTDVDDLVELVKNQGEPMTGDIRLGCIPTIAPFLLSRVVKQCQQAYPEMSLLLKEDTTERLLDALGKGELDLLILALPVDTSGYHSMKVGIDPFKMVIHKDLVGGIHQPIDYQTLPDESIFLLQSEHCITGHAITACQLGDSAKVNPFAATSLHTLVQMVNSKLGTTFLPQMAIDAGILNDTDLVVMTPPGEAPYRDIGLVWRQTTSRILT
notes: OxyR of Shewanella oneidensis, C-terminal truncation; the series is defined by SoOxyR^Δ283− (truncation lacking all residues after R283); also called SoOxyR^Δ286−; not shown: His6, N-terminal, kept
B2: SoOxyR RD_(C203S) (regulatory domain of Shewanella oneidensis OxyR, residues 91 to 304, C203S) (domain or fragment, UniProt Q8EHA1 91-304, looked up)
chain: EPMTGDIRLGCIPTIAPFLLSRVVKQCQQAYPEMSLLLKEDTTERLLDALGKGELDLLILALPVDTSGYHSMKVGIDPFKMVIHKDLVGGIHQPIDYQTLPDESIFLLQSEHSITGHAITACQLGDSAKVNPFAATSLHTLVQMVNSKLGTTFLPQMAIDAGILNDTDLVVMTPPGEAPYRDIGLVWRQTTSRILTFRTLGLLIQKLLTNETAQ
notes: OxyR of Shewanella oneidensis, regulatory domain (RD), residues 91 to 304 of the full-length protein, locked in the reduced form by C203S; Six molecules in the crystallographic asymmetric unit; also called RD_(C203S) of SoOxyR; SoOxyR^C203S RD
B3: OxyR_(R288E+F287A) (SoOxyR double point mutant) (natural protein, Shewanella oneidensis, UniProt Q8EHA1 1-304, looked up)
chain: MKNLPSLKNLYYLVNLHQEQNFNRAAKVCFVSQSTLSSGIQNLEEQLGHQLIERDHKSFMFTAIGEEVVQRSRKILTDVDDLVELVKNQGEPMTGDIRLGCIPTIAPFLLSRVVKQCQQAYPEMSLLLKEDTTERLLDALGKGELDLLILALPVDTSGYHSMKVGIDPFKMVIHKDLVGGIHQPIDYQTLPDESIFLLQSEHCITGHAITACQLGDSAKVNPFAATSLHTLVQMVNSKLGTTFLPQMAIDAGILNDTDLVVMTPPGEAPYRDIGLVWRQTTSRILTAETLGLLIQKLLTNETAQ
notes: OxyR of Shewanella oneidensis, the whole protein with two point mutations in helix α10; also called SoOxyR_(R288E-F287A); not shown: His6, N-terminal, kept
B4: OxyR^Δ290− (SoOxyR truncation lacking all residues after 290) (domain or fragment, Shewanella oneidensis, UniProt Q8EHA1 1-290, looked up)
chain: MKNLPSLKNLYYLVNLHQEQNFNRAAKVCFVSQSTLSSGIQNLEEQLGHQLIERDHKSFMFTAIGEEVVQRSRKILTDVDDLVELVKNQGEPMTGDIRLGCIPTIAPFLLSRVVKQCQQAYPEMSLLLKEDTTERLLDALGKGELDLLILALPVDTSGYHSMKVGIDPFKMVIHKDLVGGIHQPIDYQTLPDESIFLLQSEHCITGHAITACQLGDSAKVNPFAATSLHTLVQMVNSKLGTTFLPQMAIDAGILNDTDLVVMTPPGEAPYRDIGLVWRQTTSRILTFRTL
notes: OxyR of Shewanella oneidensis, C-terminal truncation; the series is defined by SoOxyR^Δ283− (truncation lacking all residues after R283); also called SoOxyR^Δ290−; not shown: His6, N-terminal, kept

What was measured:
[1] = biological target: the molecule itself; test: native gel or EMSA; oligomers read from shifted bands of protein on DNA: 10 nM digoxigenin-labelled 188 bp katB promoter probe, various amounts of His6-OxyR variant, 4 mM Tris-HCl pH 8.0, 40 mM NaCl, 4 mM MgCl2, 4% glycerol, poly(dI-dC), room temperature 15 min, 7% native polyacrylamide gel
[2] = biological target: the molecule itself; test: crystal structure; SoOxyR RD C203S crystallised at 20°C by hanging-drop vapor diffusion, 4.0 M ammonium acetate, 0.1 M Bis-Tris propane pH 7.0; six molecules in the asymmetric unit; interfaces listed with PDBePISA

Protein | stoichiometry N [1] | also measured
B1 | – | binding result [1]: binds
B2 | – | binding result [2]: binds
B3 | 4 | –
B4 | 4 | –
